Data from patent US20160159862A1 (PROTAGONIST THERAPEUTICS, published 2016).
Bridge positions count the residues as written; N and C are the ends. Square brackets hold non-standard residues; d marks the D form. Phe(4-COOH) = N[C@@H](Cc1ccc(C(=O)O)cc1)C(=O)O; 2Nal = N[C@@H](Cc1ccc2ccccc2c1)C(=O)O; NMeR = CN[C@@H](CCCNC(=N)N)C(=O)O; Pen = CC(C)(S)[C@H](N)C(=O)O

Tests used:
[1] = biological target: rh integrin α4β7 (R&D Systems #5397-A30) (human) (UniProt P13612); test: α4β7-MAdCAM competition ELISA
[2] = biological target: α4β7 integrin on human cells (human, UniProt P13612 34-1032; P26010 20-798); test: cell-based or functional assay
[3] = biological target: α4β1 integrin on human cells (human, UniProt P13612 34-1032; P05556 21-798); test: cell-based or functional assay
[4] = biological target: α4β1 (R&D Systems #5668-A4) (UniProt P13612); test: α4β1-VCAM competition ELISA
[5] = biological target: T1, α4β1 (R&D Systems #5668-A4) (UniProt P13612 34-977; P05556 21-728); test: α4β1-VCAM competition ELISA
T1 construct: bought; also called soluble α4β1
Experimental: The solution was removed by shaking and then blocked with 250 ul of 1% BSA in 1×PBS per well. The wells were then incubated at room temperature for 1 hr with shaking. Each well was then washed once with wash buffer (50 mM Tris-HCl pH7.6, 100 mM NaCL, 1 mM MnCl2 or MgCl2, 0.05% Tween-20). 25 ul of serial dilutions of peptides starting at 200 μM in assay buffer (Assay buffer: 50 mM Tris-HCl pH7.6, 100 mM NaCl, 1 mM MnCl2 or MgCl2, 0.05% Tween-20) was added to each well. Additionally, 25 ul of α4β1 (R&D Systems #5668-A4) was added to each well at a fixed concentration of 120 nM. The final peptide and α4β1 concentrations were 100 μM and 60 nM, respectively. The plates were then incubated at 37° C. for 2 hr. The solution was then removed by shaking, and each well was washed three times with wash buffer. 50 ul of 9F10 antibody at 4 ug/ml (purified mouse anti-human CD49d, BD Bioscience Cat#555502) was then added to each well, and the plate was incubated at room temperature for 1 hr with shaking. The solution was again removed by shaking, and each well was washed three times with wash buffer. 50 ul of peroxidase-conjugated AffiniPure Goat anti-mouse IgG (Jackson immune research cat #115-035-003) diluted in 1:5000 in assay buffer was added to each well. The plate was incubated at room temperature for 30 min with shaking. […] The reaction was stepped with 2N H₂SO₄ and absorbance was read at 450 nm.

[6] = biological target: α4β7 integrin on human cells (human) (UniProt P13612); test: FACS, human whole blood, 1 mM MnCl2, Neutrophils
[7] = biological target: α4β7 integrin on human cells (human) (UniProt P13612); test: FACS, human whole blood, 1 mM MnCl2, CD4 naïve T cells
[8] = biological target: α4β7 integrin on human cells (human) (UniProt P13612); test: FACS, human whole blood, 1 mM MnCl2, CD19+ B cells
[9] = biological target: α4β7 integrin on human cells (human) (UniProt P13612); test: FACS, human whole blood, 1 mM MnCl2, Eosinophils
[10] = biological target: α4β7 integrin on human cells (human) (UniProt P13612); test: FACS, human whole blood, 1 mM MnCl2, NK cells CD16+ 56+
[11] = biological target: α4β7 integrin on human cells (human) (UniProt P13612); test: FACS, human whole blood, 1 mM MnCl2, CD4 memory T cells
[12] = biological target: α4β7 integrin on human cells (human) (UniProt P13612); test: FACS, human whole blood, 1 mM MnCl2, CD8 naïve T cells
[13] = biological target: α4β7 integrin on human cells (human) (UniProt P13612); test: FACS, human whole blood, 1 mM MnCl2, Basophils
[14] = biological target: soluble α4β7 integrin (Homo sapiens (Human)) (UniProt P13612); test: SPR, antibody on streptavidin chip, soluble α4β7 as analyte
[15] = biological target: α4β7 integrin on human cells (human) (UniProt P13612); test: FACS, human whole blood, 1 mM MnCl2, CD8 memory T cells
[16] = biological target: α4β7 integrin on human cells (human) (UniProt P13612); test: FACS, human whole blood, 1 mM MnCl2, Monocytes

Ac-[Pen][NMeR]SDTL[Pen][2Nal][dE][dK]-NH2 (disulfide 1-7 (inferred); also: homodimer via DIG linker) [SEQ ID NO 33] was tested, and the IC50 [1] was less than 10 nM, the “α4β7 cell (Hu) IC50” value [2] was greater than 10 nM and the “α4β1 cell IC50” value [3] was greater than 100000 nM. The IC50 [4] was greater than 100 nM.

B1: SEQ ID NO 129 (peptide)
peptide: Ac-[Pen][NMeR]SDTL[Pen][Phe(4-COOH)]E[dK]-NH2
modifications: disulfide 1-7; not fully specified (residue 10); printed as (Ac-Pen-(N-Me-R)-S-D-T-L-Pen-F(4-COOH)-E-k-NH2)2-DIG; also: homodimer of two subunits joined by DIG linker
B1 was tested, and the IC50 [5] was greater than 100 nM.

B2: biotin-labeled vedolizumab (antibody, INN chains, looked up, V domains shown)
VH: QVQLVQSGAEVKKPGASVKVSCKGSGYTFTSYWMHWVRQAPGQRLEWIGEIDPSESNTNYNQKFKGRVTLTVDISASTAYMELSSLRSEDTAVYYCARGGYDGWDYAIDYWGQGTLVTVSS
VL: DVVMTQSPLSLPVTPGEPASISCRSSQSLAKSYGNTYLSWYLQKPGQSPQLLIYGISNRFSGVPDRFSGSGSGTDFTLKISRVEAEDVGVYYCLQGTHQPYTFGQGTKVEIKR
modifications: biotin label
B2 showed a Percent positive staining [6] of 0.45%, a Percent positive staining [7] of 55% and a Percent positive staining [8] of 85%. It also gave a Percent positive staining [9] of 91%, a Percent positive staining [10] of 42% and a Percent positive staining [11] of 22%. For the same binder, the Percent positive staining [12] was 53%, the Percent positive staining [13] was 86% and the Half-life for dissociation [14] was 43 min. The Kd [14] was 59.5 nM, the koff [14] was 0.000266 s⁻¹ and the kon [14] was 4470 M⁻¹ s⁻¹. The Percent positive staining [15] was 36% and the Percent positive staining [16] was 7%.
